Data: PMC8307404, “Crystal Structure-Guided Design of Bisubstrate Inhibitors and Photoluminescent Probes for Protein Kinases of the PIM Family” (Molecules, 2021)
Square brackets hold non-standard residues; d marks the D form. Peptide text beside a SMILES is read from it. * marks the point of attachment. X3 = O=C(CCCCCNCc1nc2c(sc3cc(Br)cnc32)c(=O)[nH]1)*

Legend:
Assay in all cases: Kinase profiling (radiometric filter-binding)
Type in all cases: biochemical
TIE2 = TIE2 (Homo sapiens, UniProt Q02763); details: TIE2, 1 µM inhibitor; read-out: Residual activity, %
Chain of TIE2 (Q02763 23-1124): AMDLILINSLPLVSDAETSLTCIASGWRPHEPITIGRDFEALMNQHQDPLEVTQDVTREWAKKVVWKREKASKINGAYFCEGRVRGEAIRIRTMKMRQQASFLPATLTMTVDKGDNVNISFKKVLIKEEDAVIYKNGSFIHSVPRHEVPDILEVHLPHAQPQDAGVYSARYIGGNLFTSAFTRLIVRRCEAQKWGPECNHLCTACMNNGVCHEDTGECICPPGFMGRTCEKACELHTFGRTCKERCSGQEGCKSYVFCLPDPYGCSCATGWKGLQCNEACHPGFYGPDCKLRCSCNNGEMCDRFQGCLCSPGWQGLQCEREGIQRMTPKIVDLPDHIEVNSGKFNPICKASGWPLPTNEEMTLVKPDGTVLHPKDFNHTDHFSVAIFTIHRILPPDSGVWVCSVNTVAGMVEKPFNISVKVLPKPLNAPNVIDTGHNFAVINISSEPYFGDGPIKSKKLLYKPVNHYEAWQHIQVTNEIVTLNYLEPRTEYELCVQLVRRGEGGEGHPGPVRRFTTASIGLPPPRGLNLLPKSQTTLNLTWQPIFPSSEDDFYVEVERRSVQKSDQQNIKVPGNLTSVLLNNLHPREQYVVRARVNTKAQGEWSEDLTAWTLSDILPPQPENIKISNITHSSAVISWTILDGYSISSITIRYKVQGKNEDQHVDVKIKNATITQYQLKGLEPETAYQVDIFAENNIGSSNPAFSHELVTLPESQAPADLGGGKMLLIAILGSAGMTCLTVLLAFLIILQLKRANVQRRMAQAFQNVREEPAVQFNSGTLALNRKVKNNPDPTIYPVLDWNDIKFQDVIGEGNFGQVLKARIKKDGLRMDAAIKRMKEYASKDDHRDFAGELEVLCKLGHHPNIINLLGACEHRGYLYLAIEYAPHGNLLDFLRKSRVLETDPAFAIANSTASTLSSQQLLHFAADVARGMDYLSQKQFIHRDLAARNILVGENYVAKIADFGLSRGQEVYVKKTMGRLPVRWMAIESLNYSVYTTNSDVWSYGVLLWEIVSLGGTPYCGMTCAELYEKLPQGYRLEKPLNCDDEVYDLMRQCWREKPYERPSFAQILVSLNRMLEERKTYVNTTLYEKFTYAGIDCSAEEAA
How it was run: (§1)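 Residual kinase activity, as a percentage of the inhibitor-free control, was measured at 1 µM final compound by radiometric filter binding. Each human enzyme was run with ATP no higher than its own KM.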

CAMKKb = CAMKKb (Homo sapiens, UniProt Q96RR4); details: 1 µM inhibitor, read-out: Residual activity, %
Chain of CAMKKb (Q96RR4 whole entry): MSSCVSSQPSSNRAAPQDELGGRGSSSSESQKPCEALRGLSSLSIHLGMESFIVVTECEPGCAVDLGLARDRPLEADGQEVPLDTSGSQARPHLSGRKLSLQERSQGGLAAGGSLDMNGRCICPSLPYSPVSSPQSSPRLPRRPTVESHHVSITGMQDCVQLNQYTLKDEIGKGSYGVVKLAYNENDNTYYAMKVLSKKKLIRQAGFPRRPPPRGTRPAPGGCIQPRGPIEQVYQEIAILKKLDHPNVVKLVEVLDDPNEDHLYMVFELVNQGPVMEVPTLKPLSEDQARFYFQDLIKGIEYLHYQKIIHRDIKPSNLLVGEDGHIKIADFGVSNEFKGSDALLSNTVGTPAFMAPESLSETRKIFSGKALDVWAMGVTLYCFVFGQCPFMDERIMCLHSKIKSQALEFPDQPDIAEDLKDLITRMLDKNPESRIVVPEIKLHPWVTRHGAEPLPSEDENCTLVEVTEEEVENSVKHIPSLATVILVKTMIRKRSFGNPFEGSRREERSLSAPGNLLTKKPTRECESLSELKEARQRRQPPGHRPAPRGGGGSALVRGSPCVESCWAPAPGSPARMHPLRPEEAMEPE
How it was run: as §1

PKD1 = molecular target: T1, PKD1 (Homo sapiens, UniProt Q15139); details: PKD1, 1 µM inhibitor; read-out: Residual activity, %
T1 sequence (Q15139 1-912): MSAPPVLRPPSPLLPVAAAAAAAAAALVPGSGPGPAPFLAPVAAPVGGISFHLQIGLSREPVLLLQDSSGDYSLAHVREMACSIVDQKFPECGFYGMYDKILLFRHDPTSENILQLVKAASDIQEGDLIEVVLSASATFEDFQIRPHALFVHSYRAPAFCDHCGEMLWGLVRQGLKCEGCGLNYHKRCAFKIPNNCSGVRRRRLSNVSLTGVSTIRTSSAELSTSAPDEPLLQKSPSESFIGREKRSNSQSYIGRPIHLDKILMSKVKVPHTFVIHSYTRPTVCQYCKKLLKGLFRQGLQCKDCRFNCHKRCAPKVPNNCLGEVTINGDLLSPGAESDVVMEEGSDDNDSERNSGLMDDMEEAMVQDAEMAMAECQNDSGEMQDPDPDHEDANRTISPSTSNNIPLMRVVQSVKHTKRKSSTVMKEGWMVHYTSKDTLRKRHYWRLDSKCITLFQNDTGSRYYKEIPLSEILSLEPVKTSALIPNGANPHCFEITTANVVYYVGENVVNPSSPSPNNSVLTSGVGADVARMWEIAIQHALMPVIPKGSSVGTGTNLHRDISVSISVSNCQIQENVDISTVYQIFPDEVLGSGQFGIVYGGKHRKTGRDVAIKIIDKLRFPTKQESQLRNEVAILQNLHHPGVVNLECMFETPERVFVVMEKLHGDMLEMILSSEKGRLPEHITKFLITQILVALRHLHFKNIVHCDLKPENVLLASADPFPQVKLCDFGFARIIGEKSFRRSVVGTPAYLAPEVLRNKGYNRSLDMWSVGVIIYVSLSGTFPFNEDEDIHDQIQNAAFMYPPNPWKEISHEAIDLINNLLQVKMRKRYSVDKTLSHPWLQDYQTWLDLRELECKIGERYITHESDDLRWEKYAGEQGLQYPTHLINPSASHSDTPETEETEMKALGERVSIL
How it was run: as §1

ERK2 = ERK2 (Homo sapiens, UniProt P28482); details: ERK2, 1 µM inhibitor; read-out: Residual activity, %
Chain of ERK2 (P28482 whole entry): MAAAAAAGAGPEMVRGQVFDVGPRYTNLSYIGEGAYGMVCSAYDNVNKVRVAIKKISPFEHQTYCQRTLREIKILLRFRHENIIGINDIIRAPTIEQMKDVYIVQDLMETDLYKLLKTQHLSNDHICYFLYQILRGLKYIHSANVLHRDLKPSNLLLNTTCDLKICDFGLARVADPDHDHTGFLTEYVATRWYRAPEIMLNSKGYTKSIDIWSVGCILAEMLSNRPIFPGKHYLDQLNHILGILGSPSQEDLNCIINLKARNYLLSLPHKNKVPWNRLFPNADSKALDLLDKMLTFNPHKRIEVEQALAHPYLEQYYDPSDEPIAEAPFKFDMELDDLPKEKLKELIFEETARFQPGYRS
How it was run: as §1

PAK4 = PAK4 (Homo sapiens, UniProt O96013); details: PAK4, 1 µM inhibitor; read-out: Residual activity, %
How it was run: as §1

PAK6 = PAK6 (Homo sapiens, UniProt Q9NQU5); details: PAK6, 1 µM inhibitor; read-out: Residual activity, %
How it was run: as §1

PKCγ = PKCγ (Homo sapiens, UniProt P05129); details: 1 µM inhibitor, read-out: Residual activity, %
How it was run: as §1

OSR1 = OSR1 (Homo sapiens, UniProt O95747); details: OSR1, 1 µM inhibitor; read-out: Residual activity, %
Chain of OSR1 (O95747 whole entry): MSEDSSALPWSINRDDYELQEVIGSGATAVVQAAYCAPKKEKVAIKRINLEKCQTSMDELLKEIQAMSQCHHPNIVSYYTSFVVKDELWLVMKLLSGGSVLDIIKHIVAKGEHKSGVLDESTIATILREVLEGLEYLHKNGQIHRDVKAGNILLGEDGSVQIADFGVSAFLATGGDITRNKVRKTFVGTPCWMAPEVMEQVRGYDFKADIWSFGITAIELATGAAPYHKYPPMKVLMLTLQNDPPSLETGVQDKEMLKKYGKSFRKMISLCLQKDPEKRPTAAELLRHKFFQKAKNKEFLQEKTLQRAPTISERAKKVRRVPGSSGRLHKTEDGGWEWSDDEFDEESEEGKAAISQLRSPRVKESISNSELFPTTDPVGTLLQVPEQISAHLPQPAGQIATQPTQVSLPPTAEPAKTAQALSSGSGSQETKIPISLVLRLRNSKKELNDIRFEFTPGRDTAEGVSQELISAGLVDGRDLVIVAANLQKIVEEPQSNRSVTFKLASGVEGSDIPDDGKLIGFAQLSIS
How it was run: as §1

CDK2-Cyclin A = CDK2-Cyclin A (Homo sapiens, UniProt P24941); details: 1 µM inhibitor, read-out: Residual activity, %
How it was run: as §1

EPH-A2 = EPH-A2 (Homo sapiens, UniProt P29317); details: EPH-A2, 1 µM inhibitor; read-out: Residual activity, %
How it was run: as §1

MAPKAP-K3 = MAPKAP-K3 (Homo sapiens, UniProt Q16644); details: MAPKAP-K3, 1 µM inhibitor; read-out: Residual activity, %
Chain of MAPKAP-K3 (Q16644 whole entry): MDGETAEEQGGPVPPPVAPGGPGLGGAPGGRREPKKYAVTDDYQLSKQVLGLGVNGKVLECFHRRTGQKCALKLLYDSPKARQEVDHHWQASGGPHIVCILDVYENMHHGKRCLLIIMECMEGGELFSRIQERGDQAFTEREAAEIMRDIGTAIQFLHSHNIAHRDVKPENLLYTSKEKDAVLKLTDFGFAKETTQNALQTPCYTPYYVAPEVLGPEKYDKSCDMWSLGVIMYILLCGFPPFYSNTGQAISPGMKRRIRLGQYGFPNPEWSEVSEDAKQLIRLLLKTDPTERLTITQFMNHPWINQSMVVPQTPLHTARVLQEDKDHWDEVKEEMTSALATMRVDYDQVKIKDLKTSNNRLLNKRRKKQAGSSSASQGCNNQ
How it was run: as §1

VEG-FR = molecular target: T2, VEG-FR (Homo sapiens, UniProt P17948); details: 1 µM inhibitor, read-out: Residual activity, %
T2 sequence (P17948 784-1338 limits assumed): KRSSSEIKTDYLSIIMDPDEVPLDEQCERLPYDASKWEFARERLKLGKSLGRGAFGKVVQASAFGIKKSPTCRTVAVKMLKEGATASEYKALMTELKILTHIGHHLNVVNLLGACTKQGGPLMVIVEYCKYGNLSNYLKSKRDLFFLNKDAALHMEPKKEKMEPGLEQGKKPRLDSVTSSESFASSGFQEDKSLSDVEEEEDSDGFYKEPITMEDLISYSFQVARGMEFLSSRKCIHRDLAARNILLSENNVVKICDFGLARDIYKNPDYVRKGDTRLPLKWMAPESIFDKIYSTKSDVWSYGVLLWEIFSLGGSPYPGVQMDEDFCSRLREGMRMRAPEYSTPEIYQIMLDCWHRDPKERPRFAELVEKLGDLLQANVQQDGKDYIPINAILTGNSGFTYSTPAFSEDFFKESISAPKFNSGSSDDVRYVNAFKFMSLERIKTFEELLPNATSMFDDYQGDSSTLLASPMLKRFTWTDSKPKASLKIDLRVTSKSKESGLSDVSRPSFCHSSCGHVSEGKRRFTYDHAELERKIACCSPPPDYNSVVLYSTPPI
How it was run: as §1

ERK5 = ERK5 (Homo sapiens, UniProt Q13164); details: ERK5, 1 µM inhibitor; read-out: Residual activity, %
Chain of ERK5 (Q13164 whole entry): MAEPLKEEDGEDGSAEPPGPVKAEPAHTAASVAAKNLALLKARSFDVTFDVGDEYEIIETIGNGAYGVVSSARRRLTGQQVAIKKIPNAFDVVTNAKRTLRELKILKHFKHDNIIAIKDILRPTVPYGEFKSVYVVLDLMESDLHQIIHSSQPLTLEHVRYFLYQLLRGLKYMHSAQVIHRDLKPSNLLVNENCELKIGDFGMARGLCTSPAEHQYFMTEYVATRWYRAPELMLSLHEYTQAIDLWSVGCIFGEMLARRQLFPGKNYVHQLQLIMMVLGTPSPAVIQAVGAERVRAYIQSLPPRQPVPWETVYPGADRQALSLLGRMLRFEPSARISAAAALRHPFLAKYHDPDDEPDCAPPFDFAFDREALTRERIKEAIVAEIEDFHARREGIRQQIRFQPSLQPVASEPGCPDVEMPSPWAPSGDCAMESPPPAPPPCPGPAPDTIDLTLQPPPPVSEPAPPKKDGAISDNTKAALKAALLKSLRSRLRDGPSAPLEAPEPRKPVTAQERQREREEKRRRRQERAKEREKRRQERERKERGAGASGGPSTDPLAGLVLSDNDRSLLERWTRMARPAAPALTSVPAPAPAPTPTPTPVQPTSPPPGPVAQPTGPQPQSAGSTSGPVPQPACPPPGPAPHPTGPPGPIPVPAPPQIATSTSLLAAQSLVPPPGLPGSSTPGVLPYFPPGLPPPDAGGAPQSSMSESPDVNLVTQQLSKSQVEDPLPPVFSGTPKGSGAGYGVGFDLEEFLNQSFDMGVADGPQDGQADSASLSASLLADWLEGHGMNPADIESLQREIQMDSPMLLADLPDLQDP
How it was run: as §1

SMILES | remaining activity at 1 µM (TIE2) [%] | remaining activity at 1 µM (CAMKKb) [%] | remaining activity at 1 µM (PKD1) [%] | remaining activity at 1 µM (ERK2) [%] | remaining activity at 1 µM (PAK4) [%] | remaining activity at 1 µM (PAK6) [%] | remaining activity at 1 µM (PKCγ) [%] | remaining activity at 1 µM (OSR1) [%] | remaining activity at 1 µM (CDK2-Cyclin A) [%] | remaining activity at 1 µM (EPH-A2) [%] | remaining activity at 1 µM (MAPKAP-K3) [%] | remaining activity at 1 µM (VEG-FR) [%] | remaining activity at 1 µM (ERK5) [%]
N=C(N)NCCC[C@@H](NC(=O)CCCCCNC(=O)Cn1cnc2c(I)c(I)c(I)c(I)c21)C(=O)N[C@H](CCCNC(=N)N)C(=O)N[C@H](CCCNC(=N)N)C(=O)N[C@H](CCCNC(=N)N)C(=O)N[C@H](CCCNC(=N)N)C(=O)N[C@H](CCCNC(=N)N)C(=O)N[C@H](CCCCN)C(N)=O [ARC-3125, TIBI-CH2-C(=O)-Ahx-(D-Arg)6-D-Lys-NH2] | 104 ± 9 | 47 ± 1 | 18 ± 4 | 161 ± 4 | 50 ± 2 | 34 ± 11 | 86 ± 9 | 73 ± 2 | 17 ± 1 | 108 ± 2 | 48 ± 1 | 95 ± 41 | 47 ± 1
N=C(N)NCCC[C@@H](NC(=O)CNC(=O)[C@@H](CCCNC(=N)N)NC(=O)[C@@H](CCCNC(=N)N)NC(=O)CCCCCCCNCc1nc2c(sc3cc(Br)cnc32)c(=O)[nH]1)C(=O)N[C@H](CCCCN)C(N)=O [Compound 1, BPTP-Aoc-(D-Arg)2-Gly-D-Arg-D-Lys-NH2] | 110 ± 6 | 117 ± 1 | 128 ± 13 | 101 ± 14 | 91 | 119 ± 8 | 99 ± 11 | 114 ± 7 | 106 ± 12 | 116 ± 5 | 111 ± 6 | 110 ± 9 | 111 ± 9
N=C(N)NCCC[C@@H](NC(=O)CCCCCNCc1nc2c(sc3cc(Br)cnc32)c(=O)[nH]1)C(=O)N[C@H](CCCNC(=N)N)C(=O)N[C@H](CCCNC(=N)N)C(=O)N[C@H](CCCNC(=N)N)C(=O)N[C@H](CCCNC(=N)N)C(=O)N[C@H](CCCNC(=N)N)C(=O)N[C@H](CCCCN)C(N)=O [ARC-3126, BPTP-Ahx-(D-Arg)6-D-Lys-NH2] (X3-[dR][dR][dR][dR][dR][dR][dK]-NH2) | 106 | 104 ± 13 | 111 ± 10 | 166 ± 1 | 71 ± 42 | 103 ± 5 | 98 ± 8 | 116 ± 12 | 106 ± 5 | 113 ± 13 | 43 ± 7 | 85 | 92 ± 1
N=C(N)NCCC[C@@H](NC(=O)CNC(=O)[C@@H](CCCNC(=N)N)NC(=O)[C@@H](CCCNC(=N)N)NC(=O)Cn1cc(CNCc2nc3c(sc4ccc(Br)cc43)c(=O)[nH]2)nn1)C(=O)N[C@H](CCCCN)C(N)=O [Compound 3, BBTP-Amt-(D-Arg)2-Gly-D-Arg-D-Lys-NH2] | 103 ± 12 | 85 ± 4 | 82 ± 3 | 104 ± 5 | 77 ± 13 | 86 ± 8 | 105 ± 9 | 107 ± 14 | 100 | 132 ± 6 | 85 ± 5 | 90 ± 5 | 93 ± 4
N=C(N)NCCC[C@@H](NC(=O)CNC(=O)[C@@H](CCCNC(=N)N)NC(=O)[C@@H](CCCNC(=N)N)NC(=O)CCCCCCCNCc1nc2c(sc3ccc(Br)cc32)c(=O)[nH]1)C(=O)N[C@H](CCCCN)C(N)=O [Compound 2, BBTP-Aoc-(D-Arg)2-Gly-D-Arg-D-Lys-NH2] | 109 ± 9 | 108 ± 1 | 134 ± 14 | 102 ± 1 | 98 ± 14 | 110 ± 15 | 97 ± 3 | 114 ± 4 | 105 ± 9 | 113 ± 10 | 110 ± 11 | 96 ± 3 | 77 ± 5
